{"source": "paper PMC12616241", "key": {"[1]": {"target": "FcγRIIIa on NK cells (human (endogenous in NK cells)) (UniProt P08637)", "sequence (P08637 17-208)": "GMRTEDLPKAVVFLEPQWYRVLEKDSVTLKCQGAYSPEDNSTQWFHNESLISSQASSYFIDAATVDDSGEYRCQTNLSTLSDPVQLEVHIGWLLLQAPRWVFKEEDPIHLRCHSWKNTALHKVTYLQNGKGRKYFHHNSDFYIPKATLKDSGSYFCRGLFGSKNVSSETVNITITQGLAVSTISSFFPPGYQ"}, "[2]": {"target": "FcγRIIIa on NK cells (human (endogenous in NK cells)) (UniProt P08637)", "test": "flow cytometry on cells; purified human NK cells incubated on ice with titrated monomeric antibody (0.03–10 µg/mL), detected with anti-F(ab′)2-Alexa Fluor 647"}}}
{"substance": "anti-FRα IgG1-DE/GM (MOv18 variable regions, human IgG1 with S239D and I332E, glycomodified) (antibody)", "values": [{"measurement": "fold decrease in EC50 of NK cell-mediated ADCC (LDH release, 4 h, 10:1) against CAL51, compared with IgG1-GM and IgG1-DE", "setting": "[1]", "result": 100, "unit": "fold"}, {"measurement": "fold decrease in EC50 of NK cell-mediated ADCC (LDH release, 4 h, 10:1) against CAL51, compared with IgG1-WT", "setting": "[1]", "result": 4000, "unit": "fold"}, {"measurement": "fold greater KD than IgG1-WT (so in the source); stronger binding is meant", "setting": "[2]", "result": 100, "unit": "fold"}]}
